Experiment [1] has as its target T1, HNE (human neutrophil elastase) (Homo sapiens, UniProt P08246).
T1 sequence (P08246 30-267): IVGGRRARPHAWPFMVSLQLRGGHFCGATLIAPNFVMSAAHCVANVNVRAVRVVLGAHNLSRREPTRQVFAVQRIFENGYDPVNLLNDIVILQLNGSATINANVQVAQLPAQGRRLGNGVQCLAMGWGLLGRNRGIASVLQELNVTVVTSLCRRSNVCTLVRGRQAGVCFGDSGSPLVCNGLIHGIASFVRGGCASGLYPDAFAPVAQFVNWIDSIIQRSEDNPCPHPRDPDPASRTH
The experiment can be described thus: Serine protease assay with p-nitroanilide substrate, HNE. The experiment is classed as biochemical. As to the method: (§1) Serine protease assays were performed using p-nitroanalide amide substrates. Trypsin activity was assayed by using Benzyl-PHE-VAL-ARG-PNA (0.5 mg/ml). Chymotrypsin activity was assayed by using SUC-(ALA)2 -PRO-PHE-PNA (SEQ ID NO:5) (10 mg/ml in DMSO). Elastase activity was assayed by using SUC-(ALA)3 -PNA (10 mg/ml in DMSO). The dilution of each of these enzymes required to produce a change in absorbance of approximately 0.4 after a 15 min incubation at 37° C. was initially determined. The complete reaction mixture contained 10 μls of this enzyme dilution plus 100 μls of the appropriate above substrate and 0-50 uls of the indicated concentration of inhibitor or TBS to maintain constant volume. Trypsin, chymotrypsin, and HNE assays were incubated at 37° C. for 15 min, while pancreatic elastase assays were incubated at 37° C. for 1.5 min. The reaction was terminated by the addition of a sufficient quantity of ice cold TBS to bring each assay up to a final volume of 1 ml. The absorbance of the p-nitroaniline produced was measured against a distilled water blank at 410 nm on a Hitachi model 100-40 spectrophotometer. Percent inhibition was calculated as: 100-[(A1 E+I/A1 E)×100].

The target of experiment [2] is T2, Trypsin (Bos taurus, UniProt P00760).
T2 construct: gene PRSS1
T2 sequence (P00760 24-246): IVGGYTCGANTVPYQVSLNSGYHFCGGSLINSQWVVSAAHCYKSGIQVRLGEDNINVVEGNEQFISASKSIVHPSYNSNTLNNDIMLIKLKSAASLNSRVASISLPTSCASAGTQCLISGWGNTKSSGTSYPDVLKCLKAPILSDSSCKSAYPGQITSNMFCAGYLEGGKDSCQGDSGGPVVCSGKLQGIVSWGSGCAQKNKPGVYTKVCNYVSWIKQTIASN
Put plainly: Serine protease assay with p-nitroanilide substrate, trypsin. Type of experiment: biochemical. The settings on record: FIG. 2, preliminary enzyme kinetic experiments, desalted SPAAT preparations. As to the method:
as §1

Experiment [3] addresses T3, DFP-treated human neutrophil cathepsin G (Homo sapiens, UniProt P08311).
T3 sequence (P08311 21-243 limits assumed): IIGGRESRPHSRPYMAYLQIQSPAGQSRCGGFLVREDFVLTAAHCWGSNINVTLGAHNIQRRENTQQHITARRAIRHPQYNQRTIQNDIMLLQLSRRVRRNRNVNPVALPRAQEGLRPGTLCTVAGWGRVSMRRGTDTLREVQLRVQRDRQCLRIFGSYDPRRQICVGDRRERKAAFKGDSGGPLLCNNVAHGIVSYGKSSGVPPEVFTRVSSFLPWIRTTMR
Put plainly: ELISA binding to DFP-treated cathepsin G. Particulars: FIG. 3B, 10 μg/ml, corrected for non-specific binding to BSA. As to the method: (§2) Plastic microtiter wells were coated overnight at 4° C. with 100 μls of antigens appropriately diluted in PBS. Plates were washed 3× with approximately 300 μls PBS/well. Any remaining reactive sites were blocked by adding 200 μls 1% BSA in PBS/well and incubating for 1 hr at 37° C. The plates were again washed 3× with approximately 300 μls PBS/well. The rabbit anti-human AAT and HSA polyclonal antibodies were diluted 1/40,000 with PBS containing 0.05% Tween-20. 50 μls of this diluted primary antibody was added/appropriate well. The plate was again incubated for 1 hr at 37° C., then washed 3× with approximately 300 μls PBS/well. 50 μls of an appropriately diluted secondary antibody (goat anti-rabbit IgG diluted 1/16,000) was added/well. The plates were again incubated for 1 hr at 37° C., then washed 5× with approximately 300 μls PBS/well. 50 μls of color developing ortho-phenylenediamine (OPD) solution was added/well. The plates were incubated for 30 min at 37° C. The reaction was finally stopped by the addition of 50 μls/well of 4.5M sulfuric acid and read at 492 nm.
(§3) An ELISA was also developed to quantitate the potential binding affinity of various antigens for AAT (SEQ ID NO:1) and/or SPAAT (SEQ ID NO:4). […]
A general note: An ELISA detects its analyte on a solid surface through an enzyme-linked reagent.

Experiment [4] deals with T4, DFP-treated human neutrophil elastase (Homo sapiens, UniProt P08246).
T4 sequence (P08246 30-247 limits assumed): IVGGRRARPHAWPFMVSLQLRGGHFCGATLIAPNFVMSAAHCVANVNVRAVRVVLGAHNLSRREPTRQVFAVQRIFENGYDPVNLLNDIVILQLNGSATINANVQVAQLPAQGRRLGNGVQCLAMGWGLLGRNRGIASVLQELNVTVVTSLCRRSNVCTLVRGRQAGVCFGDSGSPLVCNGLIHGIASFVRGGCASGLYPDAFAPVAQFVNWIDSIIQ
The experiment can be described thus: ELISA binding to DFP-treated HNE. Particulars: FIG. 3A, 10 μg/ml, corrected for non-specific binding to BSA. As to the method: as §2, §3

In experiment [5] the target is Pancreatic elastase (Homo sapiens, UniProt Q9UNI1). The experiment can be described thus: Serine protease assay with p-nitroanilide substrate, pancreatic elastase. Type of experiment: biochemical. The settings on record: FIG. 2, preliminary enzyme kinetic experiments, desalted SPAAT preparations. As to the method: as §1
Pancreatic elastase, sequence (Q9UNI1 19-258): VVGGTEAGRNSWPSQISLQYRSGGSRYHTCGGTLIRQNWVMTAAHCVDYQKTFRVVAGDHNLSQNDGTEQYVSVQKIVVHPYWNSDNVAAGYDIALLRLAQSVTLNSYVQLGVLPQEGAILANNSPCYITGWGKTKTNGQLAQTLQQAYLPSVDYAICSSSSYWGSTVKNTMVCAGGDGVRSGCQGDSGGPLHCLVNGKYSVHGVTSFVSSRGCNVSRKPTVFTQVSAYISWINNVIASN
The target of experiment [6] is Chymotrypsin (Bos taurus, UniProt P00766). Put plainly: Serine protease assay with p-nitroanilide substrate, chymotrypsin. The experiment is classed as biochemical. As to the method: as §1
Experiment [7] has as its target human neutrophil elastase (active enzyme) (human) (UniProt P08246).
Experiment [8] has as its target Chymotrypsin. The experiment can be described thus: enzyme inhibition kinetics with chymotrypsin, p-nitroanilide substrate.
The mark [9] stands for this setting: FIG. 2, preliminary enzyme kinetic experiments, desalted SPAAT preparations.

Where no end group is shown, it is not given here.

With “MFLEAIPMSIPPQVKFNKPFVFLMIEQNTKSPLFMGKVVNPTQK [chemically synthesized SPAAT]”, the “effectiveness as inhibitor of HNE relative to SPAAT isolated from placenta, mole-for-mole” value in experiment [1] (ratio of the KI values) is recorded as “eight-fold less effective”.

In the case of “SPAAT: 44-residue C-terminal fragment of α1 antitrypsin (MET-351 to LYS-394); desalted preparations isolated from human placenta (MFLEAIPMSIPPQVKFNKPFVFLMIEQNTKSPLFMGKVVNPTQK)”, in experiment [2], the effect on trypsin result was “no effect”. The “binding to DFP-treated cathepsin G” value in experiment [3] is recorded as “bound”. Besides, the “binding to DFP-treated HNE” value in experiment [4] was “bound”. Moreover, the “inhibition of pancreatic elastase (rank order of inhibition)” value in experiment [5] is listed as “chymotrypsin>HNE>pancreatic elastase”. Moreover, the “inhibition of chymotrypsin (rank order of inhibition)” value in experiment [6] (setting [9]) is recorded as “chymotrypsin>HNE>pancreatic elastase”. Further, in experiment [6] (preliminary calculations from inhibitor concentrations required to totally inhibit chymotrypsin), the “KI relative to Km, competitive inhibitor of chymotrypsin” value is on record as ~ 1/10. The “inhibition of HNE activity (compared with native AAT)” value in experiment [1] (setting [9]) is given as “almost as well as native AAT”.

Take “placental SPAAT: SPAAT isolated from human placenta, associated with collagen in the placental material (MFLEAIPMSIPPQVKFNKPFVFLMIEQNTKSPLFMGKVVNPTQK)”: the affinity in experiment [6] (chymotrypsin as the subject enzyme) corresponds to a Ki of 920 nM.

Turning to “α1 Antitrypsin (AMFLEAIPMSIPPEVKFNKPFVFLMIEQNTKSPLFMGKVVNPTQK) [AAT]”, the “binding to DFP-treated cathepsin G” value in experiment [3] is “bound”. In addition, the “binding to DFP-treated HNE” value in experiment [4] is listed as “bound”.

For the molecule MFLEAIPMSIPPQVKFNKPFVFLMIEQNTKSPLFMGKVVNPTQK [chemically synthesized SPAAT], the inhibitory effectiveness, mole-for-mole in experiment [7] turned out to be 8 fold. Further, the Ki (commonly a measure of affinity in units of concentration, obtained from inhibition or displacement) in experiment [8] was 7500 nM.

Regarding MFLEAIPMSIPPQVKFNKPFVFLMIEQNTKSPLFMGKVVNPTQK [SPAAT isolated from human placenta (44-residue C-terminal fragment of alpha1 antitrypsin)], in experiment [8], the Ki came to 920 nM.

These data come from patent US5668107A, “Compositions and methods for inhibiting elastase” (The UAB Research Foundation, priority 1995, dated 1997).
